Source: article PMC2602781

T1: I-Vdi141I I65M/I107M (selenomethionyl) (V. distributa strain IC-141, UniProt Q6L703 1-169, I65M;I107M)
T1 sequence: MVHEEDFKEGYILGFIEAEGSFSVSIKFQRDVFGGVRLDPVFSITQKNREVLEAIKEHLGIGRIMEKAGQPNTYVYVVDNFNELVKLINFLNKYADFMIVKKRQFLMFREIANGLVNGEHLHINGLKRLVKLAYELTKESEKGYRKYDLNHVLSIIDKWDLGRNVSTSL


Tests used:
[1] = biological target: I-Vdi141I … homing endonuclease, wild type (Vulcanisaeta distributa strain IC-141); assay: SEC
[2] = biological target: T1, I-Vdi141I I65M/I107M (selenomethionyl); assay: X-ray crystallography

stoichiometry N [1] | Molecule | binding result [2]
2 | I-Vdi141I … homing endonuclease, wild type (enzyme) | 
 | 22 bp I-Vdi141I target site duplex (dsDNA) DNA 1: CTGACTCTCTTAAGGTAGCCAA DNA 2: TTGGCTACCTTAAGAGAGTCAG | binds
